Measurements from patent US20110105397A1, “METHOD FOR TREATING HEART FAILURE WITH STRESSCOPIN-LIKE PEPTIDES” (priority 2009, published 2011).
Where no end group is shown, it is not given here. The star is where a group is joined. Succinimide(1-Et,3-yl) = CCN1C(=O)CC(*)C1=O

T1: human corticotrophin releasing hormone receptor type 2 (CRHR2) (human, UniProt Q13324 1-411)
T1 sequence (looked up): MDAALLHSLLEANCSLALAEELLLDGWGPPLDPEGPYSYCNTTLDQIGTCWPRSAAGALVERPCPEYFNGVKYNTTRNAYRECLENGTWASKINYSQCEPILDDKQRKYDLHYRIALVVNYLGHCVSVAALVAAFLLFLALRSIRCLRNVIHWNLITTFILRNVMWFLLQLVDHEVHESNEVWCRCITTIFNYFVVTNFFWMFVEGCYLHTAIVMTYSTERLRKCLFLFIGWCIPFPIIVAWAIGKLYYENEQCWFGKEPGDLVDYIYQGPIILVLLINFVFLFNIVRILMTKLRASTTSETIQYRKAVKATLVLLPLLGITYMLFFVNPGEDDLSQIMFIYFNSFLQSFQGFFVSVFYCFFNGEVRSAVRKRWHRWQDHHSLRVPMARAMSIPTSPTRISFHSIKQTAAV


biological target: T1, human corticotrophin releasing hormone …; assay: cell-based or functional assay

Log DR [log10]	pA50	Binder
0.61	9.07 -log10(M)	TKFTCSLDVPTNIMNLLFNIAKAKNLRAQAAANAHLMAQI-NH2 [Cys-variant stresscopin-like peptide SEQ ID NO: 6]
0.72	8.97 -log10(M)	TCFTLSLDVPTNIMNLLFNIAKAKNLRAQAAANAHLMAQI-NH2 [Cys-variant stresscopin-like peptide SEQ ID NO: 3]
1.89	7.8 -log10(M)	TKFTLSLCVPTNIMNLLFNIAKAKNLRAQAAANAHLMAQI-NH2 [Cys-variant stresscopin-like peptide SEQ ID NO: 9]
0.05	9.42 -log10(M)	TKFTLSLDVPTNIMNLLFC(Succinimide(1-Et,3-yl))IAKAKNLRAQAAANAHLMAQI-NH2 (N-terminus assumed; SMILES CC[C@H](C)[C@H](NC(=O)[C@H](CCC(N)=O)NC(=O)[C@H](C)NC(=O)[C@H](CCSC)NC(=O)[C@H](CC(C)C)NC(=O)[C@H](Cc1c[nH]cn1)NC(=O)[C@H](C)NC(=O)[C@H](CC(N)=O)NC(=O)[C@H](C)NC(=O)[C@H](C)NC(=O)[C@H](C)NC(=O)[C@H](CCC(N)=O)NC(=O)[C@H](C)NC(=O)[C@H](CCCNC(=N)N)NC(=O)[C@H](CC(C)C)NC(=O)[C@H](CC(N)=O)NC(=O)[C@H](CCCCN)NC(=O)[C@H](C)NC(=O)[C@H](CCCCN)NC(=O)[C@H](C)NC(=O)[C@@H](NC(=O)[C@H](CSC1CC(=O)N(CC)C1=O)NC(=O)[C@H](Cc1ccccc1)NC(=O)[C@H](CC(C)C)NC(=O)[C@H](CC(C)C)NC(=O)[C@H](CC(N)=O)NC(=O)[C@H](CCSC)NC(=O)[C@@H](NC(=O)[C@H](CC(N)=O)NC(=O)[C@@H](NC(=O)[C@@H]1CCCN1C(=O)[C@@H](NC(=O)[C@H](CC(=O)O)NC(=O)[C@H](CC(C)C)NC(=O)[C@H](CO)NC(=O)[C@H](CC(C)C)NC(=O)[C@@H](NC(=O)[C@H](Cc1ccccc1)NC(=O)[C@H](CCCCN)NC(=O)[C@@H](N)[C@@H](C)O)[C@@H](C)O)C(C)C)[C@@H](C)O)[C@@H](C)CC)[C@@H](C)CC)C(N)=O) [Cys-variant of stresscopin peptide with N-Ethylsuccinimide (NES) reactive group SEQ ID NO: 52]
2.86	~6.82 -log10(M)	TKFTLSCDVPTNIMNLLFNIAKAKNLRAQAAANAHLMAQI-NH2 [Cys-variant stresscopin-like peptide SEQ ID NO: 8]
~1.61	~7.93 -log10(M)	CKFTLSLDVPTNIMNLLFNIAKAKNLRAQAAANAHLMAQI (NES-PEG (about 20 kDa) on Cys 1; C-terminal amide (-NH2)) [Pegylated Cys-variant stresscopin-like peptide with NES linker and PEG about 20 kDa SEQ ID NO: 55]
~2.34	~7.2 -log10(M)	TCFTLSLDVPTNIMNLLFNIAKAKNLRAQAAANAHLMAQI (NES-PEG (about 20 kDa) on Cys 2; C-terminal amide (-NH2)) [Pegylated Cys-variant stresscopin-like peptide with NES linker and PEG about 20 kDa SEQ ID NO: 56]
~2.32	~7.22 -log10(M)	TKFTCSLDVPTNIMNLLFNIAKAKNLRAQAAANAHLMAQI (NES-PEG (about 20 kDa) on Cys 5; C-terminal amide (-NH2)) [Pegylated Cys-variant stresscopin-like peptide with NES linker and PEG about 20 kDa SEQ ID NO: 59]
> 3.22	~6.32 -log10(M)	TKFTLCLDVPTNIMNLLFNIAKAKNLRAQAAANAHLMAQI (NES-PEG (about 20 kDa) on Cys 6; C-terminal amide (-NH2)) [Pegylated Cys-variant stresscopin-like peptide with NES linker and PEG about 20 kDa SEQ ID NO: 60]
~1.9	~7.64 -log10(M)	TKCTLSLDVPTNIMNLLFNIAKAKNLRAQAAANAHLMAQI (NES-PEG (about 20 kDa) on Cys 3; C-terminal amide (-NH2)) [Pegylated Cys-variant stresscopin-like peptide with NES linker and PEG about 20 kDa SEQ ID NO: 57]
> 3.32	~6.22 -log10(M)	TKFTLSCDVPTNIMNLLFNIAKAKNLRAQAAANAHLMAQI (NES-PEG (about 20 kDa) on Cys 7; C-terminal amide (-NH2)) [Pegylated Cys-variant stresscopin-like peptide with NES linker and PEG about 20 kDa SEQ ID NO: 61]
~2.4	~7.14 -log10(M)	TKFCLSLDVPTNIMNLLFNIAKAKNLRAQAAANAHLMAQI (NES-PEG (about 20 kDa) on Cys 4; C-terminal amide (-NH2)) [Pegylated Cys-variant stresscopin-like peptide with NES linker and PEG about 20 kDa SEQ ID NO: 58]
0.72	8.97 -log10(M)	CKFTLSLDVPTNIMNLLFNIAKAKNLRAQAAANAHLMAQI-NH2 [Cys-variant stresscopin-like peptide SEQ ID NO: 2]
2.08	7.6 -log10(M)	TKFTLCLDVPTNIMNLLFNIAKAKNLRAQAAANAHLMAQI-NH2 [Cys-variant stresscopin-like peptide SEQ ID NO: 7]
0.76	8.93 -log10(M)	TKFCLSLDVPTNIMNLLFNIAKAKNLRAQAAANAHLMAQI-NH2 [Cys-variant stresscopin-like peptide SEQ ID NO: 5]
~2.22	~7.25 -log10(M)	TKFTLSLDVPTNIMNLC(Succinimide(1-Et,3-yl))FNIAKAKNLRAQAAANAHLMAQI-NH2 (N-terminus assumed; SMILES CC[C@H](C)[C@H](NC(=O)[C@H](CCC(N)=O)NC(=O)[C@H](C)NC(=O)[C@H](CCSC)NC(=O)[C@H](CC(C)C)NC(=O)[C@H](Cc1c[nH]cn1)NC(=O)[C@H](C)NC(=O)[C@H](CC(N)=O)NC(=O)[C@H](C)NC(=O)[C@H](C)NC(=O)[C@H](C)NC(=O)[C@H](CCC(N)=O)NC(=O)[C@H](C)NC(=O)[C@H](CCCNC(=N)N)NC(=O)[C@H](CC(C)C)NC(=O)[C@H](CC(N)=O)NC(=O)[C@H](CCCCN)NC(=O)[C@H](C)NC(=O)[C@H](CCCCN)NC(=O)[C@H](C)NC(=O)[C@@H](NC(=O)[C@H](CC(N)=O)NC(=O)[C@H](Cc1ccccc1)NC(=O)[C@H](CSC1CC(=O)N(CC)C1=O)NC(=O)[C@H](CC(C)C)NC(=O)[C@H](CC(N)=O)NC(=O)[C@H](CCSC)NC(=O)[C@@H](NC(=O)[C@H](CC(N)=O)NC(=O)[C@@H](NC(=O)[C@@H]1CCCN1C(=O)[C@@H](NC(=O)[C@H](CC(=O)O)NC(=O)[C@H](CC(C)C)NC(=O)[C@H](CO)NC(=O)[C@H](CC(C)C)NC(=O)[C@@H](NC(=O)[C@H](Cc1ccccc1)NC(=O)[C@H](CCCCN)NC(=O)[C@@H](N)[C@@H](C)O)[C@@H](C)O)C(C)C)[C@@H](C)O)[C@@H](C)CC)[C@@H](C)CC)C(N)=O) [Cys-variant of stresscopin peptide with N-Ethylsuccinimide (NES) reactive group SEQ ID NO: 53]
1.03	8.65 -log10(M)	TKCTLSLDVPTNIMNLLFNIAKAKNLRAQAAANAHLMAQI-NH2 [Cys-variant stresscopin-like peptide SEQ ID NO: 4]
-0.08	9.55 -log10(M)	TKFTLSLDVPTNIMNC(Succinimide(1-Et,3-yl))LFNIAKAKNLRAQAAANAHLMAQI-NH2 (N-terminus assumed; SMILES CC[C@H](C)[C@H](NC(=O)[C@H](CCC(N)=O)NC(=O)[C@H](C)NC(=O)[C@H](CCSC)NC(=O)[C@H](CC(C)C)NC(=O)[C@H](Cc1c[nH]cn1)NC(=O)[C@H](C)NC(=O)[C@H](CC(N)=O)NC(=O)[C@H](C)NC(=O)[C@H](C)NC(=O)[C@H](C)NC(=O)[C@H](CCC(N)=O)NC(=O)[C@H](C)NC(=O)[C@H](CCCNC(=N)N)NC(=O)[C@H](CC(C)C)NC(=O)[C@H](CC(N)=O)NC(=O)[C@H](CCCCN)NC(=O)[C@H](C)NC(=O)[C@H](CCCCN)NC(=O)[C@H](C)NC(=O)[C@@H](NC(=O)[C@H](CC(N)=O)NC(=O)[C@H](Cc1ccccc1)NC(=O)[C@H](CC(C)C)NC(=O)[C@H](CSC1CC(=O)N(CC)C1=O)NC(=O)[C@H](CC(N)=O)NC(=O)[C@H](CCSC)NC(=O)[C@@H](NC(=O)[C@H](CC(N)=O)NC(=O)[C@@H](NC(=O)[C@@H]1CCCN1C(=O)[C@@H](NC(=O)[C@H](CC(=O)O)NC(=O)[C@H](CC(C)C)NC(=O)[C@H](CO)NC(=O)[C@H](CC(C)C)NC(=O)[C@@H](NC(=O)[C@H](Cc1ccccc1)NC(=O)[C@H](CCCCN)NC(=O)[C@@H](N)[C@@H](C)O)[C@@H](C)O)C(C)C)[C@@H](C)O)[C@@H](C)CC)[C@@H](C)CC)C(N)=O) [Cys-variant of stresscopin peptide with N-Ethylsuccinimide (NES) reactive group SEQ ID NO: 54]
